Reference: article doi:10.1101/2023.04.21.537812 (bioRxiv, 2023)

Target: the molecule itself
Experiment: SEC

B1: uncleaved Ycf1p-3xFLAG (natural protein, S. cerevisiae, UniProt P39109 1-1515, looked up)
chain: MAGNLVSWACKLCRSPEGFGPISFYGDFTQCFIDGVILNLSAIFMITFGIRDLVNLCKKKHSGIKYRRNWIIVSRMALVLLEIAFVSLASLNISKEEAENFTIVSQYASTMLSLFVALALHWIEYDRSVVANTVLLFYWLFETFGNFAKLINILIRHTYEGIWYSGQTGFILTLFQVITCASILLLEALPKKPLMPHQHIHQTLTRRKPNPYDSANIFSRITFSWMSGLMKTGYEKYLVEADLYKLPRNFSSEELSQKLEKNWENELKQKSNPSLSWAICRTFGSKMLLAAFFKAIHDVLAFTQPQLLRILIKFVTDYNSERQDDHSSLQGFENNHPQKLPIVRGFLIAFAMFLVGFTQTSVLHQYFLNVFNTGMYIKSALTALIYQKSLVLSNEASGLSSTGDIVNLMSVDVQKLQDLTQWLNLIWSGPFQIIICLYSLYKLLGNSMWVGVIILVIMMPLNSFLMRIQKKLQKSQMKYKDERTRVISEILNNIKSLKLYAWEKPYREKLEEVRNNKELKNLTKLGCYMAVTSFQFNIVPFLVSCCTFAVFVYTEDRALTTDLVFPALTLFNLLSFPLMIIPMVLNSFIEASVSIGRLFTFFTNEELQPDSVQRLPKVKNIGDVAINIGDDATFLWQRKPEYKVALKNINFQAKKGNLTCIVGKVGSGKTALLSCMLGDLFRVKGFATVHGSVAYVSQVPWIMNGTVKENILFGHRYDAEFYEKTIKACALTIDLAILMDGDKTLVGEKGISLSGGQKARLSLARAVYARADTYLLDDPLAAVDEHVARHLIEHVLGPNGLLHTKTKVLATNKVSALSIADSIALLDNGEITQQGTYDEITKDADSPLWKLLNNYGKKNNGKSNEFGDSSESSVRESSIPVEGELEQLQKLNDLDFGNSDAISLRRASDATLGSIDFGDDENIAKREHREQGKVKWNIYLEYAKACNPKSVCVFILFIVISMFLSVMGNVWLKHWSEVNSRYGSNPNAARYLAIYFALGIGSALATLIQTIVLWVFCTIHASKYLHNLMTNSVLRAPMTFFETTPIGRILNRFSNDIYKVDALLGRTFSQFFVNAVKVTFTITVICATTWQFIFIIIPLSVFYIYYQQYYLRTSRELRRLDSITRSPIYSHFQETLGGLATVRGYSQQKRFSHINQCRIDNNMSAFYPSINANRWLAYRLELIGSIIILGAATLSVFRLKQGTLTAGMVGLSLSYALQITQTLNWIVRMTVEVETNIVSVERIKEYADLKSEAPLIVEGHRPPKEWPSQGDIKFNNYSTRYRPELDLVLKHINIHIKPNEKVGIVGRTGAGKSSLTLALFRMIEASEGNIVIDNIAINEIGLYDLRHKLSIIPQDSQVFEGTVRENIDPINQYTDEAIWRALELSHLKEHVLSMSNDGLDAQLTEGGGNLSVGQRQLLCLARAMLVPSKILVLDEATAAVDVETDKVVQETIRTAFKDRTILTIAHRLNTIMDSDRIIVLDNGKVAEFDSPGQLLSDNKSLFYSLCMEAGLVNEN
B1: binds.
